For one series, the target named is T1, Suv3 helicase (UniProt Q8IYB8 23-786, Alexa 647 label (site not stated) in the MST assay).
T1 sequence (looked up): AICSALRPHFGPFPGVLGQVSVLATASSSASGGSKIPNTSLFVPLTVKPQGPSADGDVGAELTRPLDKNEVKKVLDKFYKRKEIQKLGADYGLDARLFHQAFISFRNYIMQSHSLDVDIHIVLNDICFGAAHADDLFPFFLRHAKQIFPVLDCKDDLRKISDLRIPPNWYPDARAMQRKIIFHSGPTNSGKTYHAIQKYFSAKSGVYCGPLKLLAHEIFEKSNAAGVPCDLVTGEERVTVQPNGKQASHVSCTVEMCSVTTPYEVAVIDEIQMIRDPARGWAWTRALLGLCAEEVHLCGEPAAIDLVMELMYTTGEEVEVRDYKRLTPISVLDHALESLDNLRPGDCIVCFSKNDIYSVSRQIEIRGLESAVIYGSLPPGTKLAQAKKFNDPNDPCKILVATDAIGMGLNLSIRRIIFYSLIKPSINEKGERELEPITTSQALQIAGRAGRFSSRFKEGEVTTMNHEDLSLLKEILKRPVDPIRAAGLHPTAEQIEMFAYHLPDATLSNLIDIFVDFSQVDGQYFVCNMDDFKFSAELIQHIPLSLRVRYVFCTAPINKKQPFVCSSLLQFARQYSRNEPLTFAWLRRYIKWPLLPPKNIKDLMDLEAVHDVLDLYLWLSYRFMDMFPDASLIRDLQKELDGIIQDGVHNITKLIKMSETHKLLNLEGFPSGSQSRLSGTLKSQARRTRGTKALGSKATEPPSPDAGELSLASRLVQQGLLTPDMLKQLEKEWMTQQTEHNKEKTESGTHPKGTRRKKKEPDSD
As to the kind of experiment: MST.

The series “SAXS” deals with the molecule itself. As to the kind of experiment: SAXS.

Changes are numbered by the printed parent chain. In names and notes the source's numbering stands.

B1: hPNPase G499R mutant, residues 46-783 (enzyme, human, UniProt Q8TCS8 46-783, looked up)
chain: AVAVDLGNRKLEISSGKLARFADGSAVVQSGDTAVMVTAVSKTKPSPSQFMPLVVDYRQKAAAAGRIPTNYLRREIGTSDKEILTSRIIDRSIRPLFPAGYFYDTQVLCNLLAVDGVNEPDVLAINGASVALSLSDIPWNGPVGAVRIGIIDGEYVVNPTRKEMSSSTLNLVVAGAPKSQIVMLEASAENILQQDFCHAIKVGVKYTQQIIQGIQQLVKETGVTKRTPQKLFTPSPEIVKYTHKLAMERLYAVFTDYEHDKVSRDEAVNKIRLDTEEQLKEKFPEADPYEIIESFNVVAKEVFRSIVLNEYKRCDGRDLTSLRNVSCEVDMFKTLHGSALFQRGQTQVLCTVTFDSLESGIKSDQVITAINGIKDKNFMLHYEFPPYATNEIGKVTGLNRRELGHGALAEKALYPVIPRDFPFTIRVTSEVLESNGSSSMASACGGSLALMDSRVPISSAVAGVAIGLVTKTDPEKGEIEDYRLLTDILGIEDYNGDMDFKIAGTNKGITALQADIKLPGIPIKIVMEAIQQASVAKKEILQIMNKTISKPRASRKENGPVVETVQVPLSKRAKFVGPGGYNLKKLQAETGVTISQVDEETFSVFAPTPSAMHEARDFITEICKDDQEQQLEFGAVYTATITEIRDTGVMVKLYPNMTAVLLHNTQLDQRKIKHPTALGLEVGQEIQVKYFGRDPADGRMRLSRKVLQSPATTVVRTLNDRSSIVMGEPISQSSSNSQ
Broadly, the Kd is the free concentration of one partner at which half of the binding sites on the other are occupied at equilibrium, for simple one-to-one binding. Higher therefore signals lower affinity. In general, stoichiometry N refers to the number of molecules, sites or subunits per partner or assembly. For the molecule B1, in the series with Suv3 helicase, the Kd was 474 ± 70 nM. In “SAXS”, the “stoichiometry N” value was determined as 3.

B2: hPNPase P467S mutant, residues 46-783 (enzyme, human, UniProt Q8TCS8 46-783, looked up)
chain: B1 chain with P422S, R454G
For the molecule B2, in the series with Suv3 helicase, the affinity, expressed as Kd, was 386 ± 64 nM. Moreover, the “stoichiometry N” value in the series “SAXS” worked out at 3.

The record behind these values is publication PMC11851098 (Nucleic Acids Research, 2025).
